The series can be described thus: yeast display, Sf9 membrane polyspecificity reagent, FACS + sequencing; frameworks hold sequencing errors. The procedure, abridged:
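Sorting gates, low and high (top ~1%), were placed on anti-HA fluorescence to track expression and on streptavidin fluorescence to track reagent binding. A clone's polyreactivity label is taken from the gate it came out of. The reagent was 10% biotinylated, detergent-solubilized Sf9 membrane, applied for 1 hour at 4 °C to galactose-induced yeast display cells.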
As to “QVQLVESGGGLVQAGGSLRLSCAASGRTSPAYAMGWYRQAPGKERELVAAISRSGGRTNYADSVKGRFTISRDNAKNTVYLQMNSLKPEDTAVYYCAVPYWYLGDNSGHDPYYYWGQGTQVTVSS”, the “polyreactivity (PSR sort gate)” value was “high polyreactivity”.
The result for “QVQLVESGGGLVQAGGSLRLSCAASGRTSRSNAMGWYRQAPGKERELVAAISSGGSTYADSVKGRFTISRDNAKNTVYLQMNSLKPEDTAVYYCAARYRTRYAGYNYWGQGTQVTVSS” reads “high polyreactivity”.
As for “QVQLVESGGGLVQAGGSLRLSCAASGRTSRSYTMGWYRQSPGKERELVAAITRGGRTYYADSVKGRFTISRDNAKNTVYLQMNSLKPEDTAVYYCATDRVQSYGYWGQGTQVTVSS”, the “polyreactivity (PSR sort gate)” value is given as “low polyreactivity”.
The same measure for “QVQLVESGGGLVQAGGSLRLSCAASGRTSSANVMGGYRQAPGKDRELVAAISWSGGSTYYADSVKGRFTISRDNAKNTVYLQMNSRKPEDTAVYYCAADYYKYYYGGDQLSITRYDYWGQGTQVTVSS”: “low polyreactivity”.
As for “QVQLVESGGGLVQAGGSLRLSCAASGRTSSSNAMGWYRQAPGKERELVATISRTGSTYYADSVKGRFTISRDNAKNTVYLQMNSLKPEDTSVYYCNRYFSEALLHGSCYNRYYYWGQGTQVTVSS”, the “polyreactivity (PSR sort gate)” value is “low polyreactivity”.
The same measure for “QVQLVESGGGLVQAGGSLRLSCAASGRTSVINAMGWYRQAPGKERELVATITWSGASTYYADSVKGRFTISRDNAKNTLYLQMNSLKPEVTAVYYCATDSAQYGYDYWGQGTQVTVSS”: “low polyreactivity”.
Regarding “QVQLVESGGGLVQAGGSLRLSCAASGRTSVKYAMGWYRQAPGKERELVAAITYRGSSTYYADSVKGRFTISRDNAKNTVYLQMNSLKPEDTAVYYCAARPPLSGRYGYYYWGQGTQVTVSS”, the “polyreactivity (PSR sort gate)” value was “high polyreactivity”.
Take “QVQLVESGGGLVQAGGSLRLSCAASGRTSVLYAMGWYRQAPGKERELVAAISRDGSTNYADSVKGRFTISRDNAKNTVYLQMNSLKPEDTAVYYCAAEVRGSYYLTGYDYWGQGTQVTVSS”: the “polyreactivity (PSR sort gate)” value was “high polyreactivity”.
Turning to “QVQLVESGGGLVQAGGSLRLSCAASGRTSVRNAMGWYRQAPGKERELVAAISNGGRTNYADSVKGRFTISRDNAKNTVYLQMNSLKPEDTAVYYCAARGFWLYYHGGVRSGYDYWGQGTQVTVSS”, the “polyreactivity (PSR sort gate)” value is “high polyreactivity”.
As for “QVQLVESGGGLVQAGGSLRLSCAASGRTSVRYAMGWYRQAPGKERELVAAISWSGGSTYYADSVKGRFTISRDNAKNTVYLQMNSLKPEDTAVYDCNAQHARGYYYWGQGTQVTVSS”, the “polyreactivity (PSR sort gate)” value is “low polyreactivity”.
The result for “QVQLVESGGGLVQAGGSLRLSCAASGRTSWVYAMGWYRQAPGKERELVASIRKRTVVYADSVKGRFTISRDNAKNTVYLQMNSLKPEDTAVYYCNADTTFYGYRTYRPENYWGQGTQVTVSS” reads “high polyreactivity”.
The same measure for “QVQLVESGGGLVQAGGSLRLSCAASGRTSYINAMGWYRPAPGKERELVAAITVRAGRTYYADSVKGRFTISRDNANKTVYLQMNSLKPEDTAVYYCAAGVSEGSGDLYYWGQGTQVTVSS”: “low polyreactivity”.
The result for “QVQLVESGGGLVQAGGSLRLSCAASGRTSYRDAMGWYRQAPGKESEFVAAISKSGTSTYYADSVKGRFTISRDNAKNTVYVQMYRLKPEDTAVYYCAAITGVGLRVNSGIGFYYWGQGTQVTVSS” reads “high polyreactivity”; that for “QVQLVESGGGLVQAGGSLRLSCAASGRTSYWYAMGWYRQAPGKERELVAVISSGGSTYYADSVKGRFTISRDNAKNTVYLQMNSLKPEDTAVYYCNAVVGRWFPYNLSDYWGQGTQVTVSS”, “low polyreactivity”; that for “QVQLVESGGGLVQAGGSLRLSCAASGRTVPYNAMGWYRQAPGKESELVAAISGRGGSTYYADSVKGRFTISRDNAKKTVYLQMTSLKPEDTAVYYCAARLPWSYYRTQGYNYWGQGTQVTVSS”, “high polyreactivity”.
Turning to “QVQLVESGGGLVQAGGSLRLSCAASGRTVRRYARGWYRQAPGKERELVATIRSGDNTNYADSVKGRFTISRDNAKNTVYLQMNSLKPEDTAVYYCNRSPKSGQVTYLYSVNAHYDYWGQGTQVTVSS”, the “polyreactivity (PSR sort gate)” value is recorded as “low polyreactivity”.
The same measure for “QVQLVESGGGLVQAGGSLRLSCAASGRTVSYYAMGWYRQAPGKEREFVAAISSSGGSTNYADSVKGRFTISRDNAKNTVYLQMNSLKPEDTAVYYCNAGSGYTGVYRWYYWRYDYWGQGTQVTVSS”: “low polyreactivity”; for “QVQLVESGGGLVQAGGSLRLSCAASGRTYNGYVMGGYRQAPGTEREFVAVINWSGGNTYDADSVKGRFTISRDNAKNTVSLQMNRLKPDDTAVYYCAPRRVRSYAYDYWGQGTQVTVSS”: “high polyreactivity”.
The result for “QVQLVESGGGLVQAGGSLRLSCAASGRTYRSNVMGWYRQAPGKERELVASITWSGGTTYYADSVKVRFTISRDNAKNTVYLQMNSLKPEDTAVYYCNAADERSQGWVGYDHWGQCTQVTVSS” reads “low polyreactivity”; that for “QVQLVESGGGLVQAGGSLRLSCAASGRTYVYNAMGLYRHAPGKERELVAGITNGGSTNYADSVKGRFTISRDNAKNTVYLQMNSLKPEDTAVYYCNRDVKVLYASSHSPYGYDHWGQGTQVTVSS”, “low polyreactivity”.
The result for “QVQLVESGGGLVQAGGSLRLSCAASGRTYVYNAMGWYRQAPGKERELVAAISSSGGSTRYADSVKGRFTISRDNAKNTVYLQMNSVKPEDTAVYYCNRLRYSNRYDSWGQGTQVTVSS” reads “high polyreactivity”; that for “QVQLVESGGGLVQAGGSLRLSCAASGRTYYNNAMGWYRQAPGKEREFVAAISASGGRTRYADSVKGRFTISRDNAKNTVYLQMNSLKPEDTAVYYCAAAGTSTLYWGQGTQVTVSS”, “high polyreactivity”.
On to “QVQLVESGGGLVQAGGSLRLSCAASGRTYYYNAMGWYRQAPGKERELVAVISWDDGSTYYADSVKGRFTISRDKAMNSVYLQLNSLKPEDTAVYYCAAYDYLDYADDYWGQGTQVTVSS”, for which the “polyreactivity (PSR sort gate)” value is reported as “low polyreactivity”.
The result for “QVQLVESGGGLVQAGGSLRLSCAASGRWLYAMGWYIQAHGKERELVAAISRSGGSTNYADSVKGRFTISRDNAKNTVYLQMNSLKPEDTAVYYCAATPYSYYTYQPEGEYWGQGTQVTVSS” reads “low polyreactivity”; that for “QVQLVESGGGLVQAGGSLRLSCAASGRWLYAMGWYIQAPAKERELVAAISRSGGSTNYADSVKGRFTISRDNAKNTVYLQMNSLKPEDTAVYYCATKYNADTRYDYWGQGTQVTVSS”, “low polyreactivity”.
The result for “QVQLVESGGGLVQAGGSLRLSCAASGSAYHYAMGWYSQAPGKERELVASITWRGDTTYYADSVKGRFTISRDNAKITVYLQMNSLKPEDTAVYYCAARKFFRQGGKRYDYWGQGTQVTVSS” reads “high polyreactivity”; that for “QVQLVESGGGLVQAGGSLRLSCAASGSFFVDDAMGWYRQAPGKERELVATISSDVSTYYADSVKGRFTISRDNAKTTVYIQMNSLKPEDTAVYYCAATVSLHWAYSFSLYLEDDYWGQATQVTVSS”, “low polyreactivity”.
The result for “QVQLVESGGGLVQAGGSLRLSCAASGSIAYNAMGCYRQAPGKERELVASIRASGGRTYYADSVKGRFTISRDNAKNTVYLQMNSLKPEDTAVYYCAAYAYNAIEYGYWGQGTQVTVSS” reads “low polyreactivity”; that for “QVQLVESGGGLVQAGGSLRLSCAASGSICAYAMGWYRQAPGKERELVASISTSTDITYADSVKGRFTISRDNAKNTVYLQMNSLKPEDTAVYYCAATYWQWWGWYDYWGQGTQVTVSS”, “high polyreactivity”.
“QVQLVESGGGLVQAGGSLRLSCAASGSICDDYAMGWYRQAPGKEWELVAAISSSGTSTYYADSVKGRFTISRDNAMYTVYLQMNSLKPEDTAVYYCSARSAILISGYLMDYWGQGTQVTVSS”: the “polyreactivity (PSR sort gate)” value is reported as “low polyreactivity”.
